Measured values published in publication PMC8406831, “High-resolution structure of the amino acid transporter AdiC reveals insights into the role of water molecules and networks in oligomerization and substrate binding” (BMC Biology, 2021).

B1: AdiC-Q88E (natural protein, E. coli)
chain: MSSDADAHKVGLIPVTLMVSGNIMGSGVFLLPANLASTGGIAIYGWLVTIIGALGLSMVYAKMSFLDPSPGGSYAYARRCFGPFLGYETNVLYWLACWIGNIAMVVIGVGYLSYFFPILKDPLVLTITCVVVLWIFVLLNIVGPKMITRVQAVATVLALIPIVGIAVFGWFWFRGETYMAAWNVSGLGTFGAIQSTLNVTLWSFIGVESASVAAGVVKNPKRNVPIATIGGVLIAAVCYVLSTTAIMGMIPNAALRVSASPFGDAARMALGDTAGAIVSFCAAAGCLGSLGGWTLLAGQTAKAAADDGLFPPIFARVNKAGTPVAGLIIVGILMTIFQLSSISPNATKEFGLVSSVSVIFTLVPYLYTCAALLLLGHGHFGKARPAYLAVTTIAFLYCIWAVVGSGAKEVMWSFVTLMVITAMYALNYNRLHKNPYPLDAPISKD
notes: AdiC, L-arginine/agmatine transporter of E. coli (gene from XL1-Blue genomic DNA, vector pZUDF21) with the point mutation Q88E; Residues of the HRV3C site may remain at the C-terminus after cleavage; source: E. coli BL21(DE3) pLysS, purified (Ni-NTA in DDM, on-column HRV3C cleavage); not shown: deca His-tag, C-terminal, cleaved
B2: AdiC-Y367F (natural protein, E. coli)
chain: MSSDADAHKVGLIPVTLMVSGNIMGSGVFLLPANLASTGGIAIYGWLVTIIGALGLSMVYAKMSFLDPSPGGSYAYARRCFGPFLGYQTNVLYWLACWIGNIAMVVIGVGYLSYFFPILKDPLVLTITCVVVLWIFVLLNIVGPKMITRVQAVATVLALIPIVGIAVFGWFWFRGETYMAAWNVSGLGTFGAIQSTLNVTLWSFIGVESASVAAGVVKNPKRNVPIATIGGVLIAAVCYVLSTTAIMGMIPNAALRVSASPFGDAARMALGDTAGAIVSFCAAAGCLGSLGGWTLLAGQTAKAAADDGLFPPIFARVNKAGTPVAGLIIVGILMTIFQLSSISPNATKEFGLVSSVSVIFTLVPYLFTCAALLLLGHGHFGKARPAYLAVTTIAFLYCIWAVVGSGAKEVMWSFVTLMVITAMYALNYNRLHKNPYPLDAPISKD
notes: AdiC, L-arginine/agmatine transporter of E. coli (gene from XL1-Blue genomic DNA, vector pZUDF21) with the point mutation Y367F; Residues of the HRV3C site may remain at the C-terminus after cleavage; source: E. coli BL21(DE3) pLysS, purified (Ni-NTA in DDM, on-column HRV3C cleavage); not shown: deca His-tag, C-terminal, cleaved
B3: AdiC-T421V (natural protein, E. coli)
chain: MSSDADAHKVGLIPVTLMVSGNIMGSGVFLLPANLASTGGIAIYGWLVTIIGALGLSMVYAKMSFLDPSPGGSYAYARRCFGPFLGYQTNVLYWLACWIGNIAMVVIGVGYLSYFFPILKDPLVLTITCVVVLWIFVLLNIVGPKMITRVQAVATVLALIPIVGIAVFGWFWFRGETYMAAWNVSGLGTFGAIQSTLNVTLWSFIGVESASVAAGVVKNPKRNVPIATIGGVLIAAVCYVLSTTAIMGMIPNAALRVSASPFGDAARMALGDTAGAIVSFCAAAGCLGSLGGWTLLAGQTAKAAADDGLFPPIFARVNKAGTPVAGLIIVGILMTIFQLSSISPNATKEFGLVSSVSVIFTLVPYLYTCAALLLLGHGHFGKARPAYLAVTTIAFLYCIWAVVGSGAKEVMWSFVTLMVIVAMYALNYNRLHKNPYPLDAPISKD
notes: AdiC, L-arginine/agmatine transporter of E. coli (gene from XL1-Blue genomic DNA, vector pZUDF21) with the point mutation T421V; Residues of the HRV3C site may remain at the C-terminus after cleavage; source: E. coli BL21(DE3) pLysS, purified (Ni-NTA in DDM, on-column HRV3C cleavage); not shown: deca His-tag, C-terminal, cleaved

Molecular target: the molecule itself
Test: SEC; Superdex 200 5/150 GL, 20 mM Tris-HCl, pH 8.0, 150 mM NaCl, 0.04% (w/v) DDM; elution volumes of the mutants compared with the wild type

Binding result, binds:
B1
B2
B3
